Laboratory results as given in patent US20030157132A1.

Biological target: E2tag (tPA signal+E2(384-711)+tag; soluble E2/NS1 of HCV J1 clone with C-terminal E-tag) (hepatitis C virus (HCV J1 clone))
Test: SPR, BIACORE X; E2tag amine-coupled to CM5 chip, scFv1-1 injected in HBS buffer

Kd: 2.2 nM
B1: single chain antibody scFv1-1 (scFv)
scFv: QVQLVQSGAEVKKPGSSVKVSCKASGGTYIDQPIGWVRQAPGQGLEWMGGIIPLSGPPHYAQKFQGKVSITADESTSTAYLELTSLTSEDTAVYYCARVLRGYCRRGSCYDWLDPWGQGTLVTVSSGGGGSGGGGSGGGGSALDIQMTQSPSSLSASVGDRVTITCQASQDISNYLNWYQQKPGKAPKLLLYATSRLYSGVPSRFSGSGSGTDFTLSISSLQPEDFATYYCQQTKSFPLTFGGGTKVEIKRAAAEQKLISEEDLGSRSTHHAHHHAA
